Experimental data as given in patent US20190233498A1 (H LUNDBECK A S, published 2019).
Changes are numbered by the printed parent chain.

T1: human VIP (human)
T1 construct: also called Vasoactive Intestinal Peptide
T1 peptide: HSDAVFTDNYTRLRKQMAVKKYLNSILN

T2: human PACAP27 (human, C-terminal leucine is amidated; 125I-labelled in Example 10)
T2 peptide: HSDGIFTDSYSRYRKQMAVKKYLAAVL

T3: human PACAP38 (human, not fully specified; C-terminal lysine is amidated; N-terminal or C-terminal biotin in the HTRF and PC-12 cell binding assays)
T3 construct: synthetic peptide, bought; also called huPACAP (1-38)
T3 peptide: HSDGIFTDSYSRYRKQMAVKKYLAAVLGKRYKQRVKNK

B1: anti-PACAP antibody Ab15 (antibody, human IgG1, kappa, N297A, V domains shown)
VH: QSVEASGGHLVTPGTPLTLTCTVSGFSLSSAAMNWVRQAPGKGLEWIGSVDERQNKYYASWAKGRFTISRTSSTTVNLKMTSPTTEDTATYFCARGGGEFFIWGQGTLVTVSS
VL: AQVLTQTPSSVSAAVGGTVTINCQSSQSVYSNNRLSWYQQKPGQPPNLLIYEASSLASGVPSRFSGSGSGTQFTLTISDLECDDAATYYCAGAYNTGIYGFGGGTEVVVKR
notes: full-length rabbit/human chimeric antibody
B2: anti-PACAP antibody Ab16 (antibody, human IgG1, kappa, N297A, V domains shown)
VH: QSVEESGGRLVTPGTPLTLTCTVSGFSLSSAAMSWVRQAPGKGLEWIGIIDDSGNTYYASWAKARFTISKTSSTTVDLKMTSPTTEDTATYFCARGGGEFFIWGPGTLVTVSS
VL: DPVLTQTPSSVSAAVGGTVTINCQSSQSVYNNKWLSWYQQKPGQSPKFLIYQASNLASGVPSRFKGSGSGTQFTLTISDLECDDGATYYCAGGYRGNVCGFGGGTEVVVKR
notes: as for B1
B3: anti-PACAP antibody Ab17 (antibody, human IgG1, kappa, N297A, V domains shown)
VH: B2 VH with S34N, I50F, D52P, S53Y, G54S, N55S, A64G
VL: AQVLTQTPSSVSAAVGGTVTINCQSSQSVYKNKYLSWYQQKVGQPPKFLIYQASNLASGVPSRFKGSGSGTQFTLTISDLECDDAATYYCAGGYSGNMVDFGGGTEVVVKR
notes: as for B1

What was measured:
[1] = biological target: T1, human VIP; assay: SPR, Ab immobilised
Method: [The procedure below names another target; the source says it served here with some conditions changed.] (§1) Binding affinities of monoclonal antibodies for human PACAP were estimated using SPR on the PROTEON™ XPR36 (Bio-Rad, Hercules, Calif.). Antibody was immobilized to the surface of general amine coupling (“GLC” or “GLM”) Chips (Bio-Rad, Hercules, Calif.). A dilution series of human PACAP38 (SEQ ID NO: 1241) prepared in 1×PBST Buffer (4.3 mM Na Phosphate, 1.4 mM K Phosphate, 135 mM NaCl, 2.7 mM KCl 0.05% Polysorbate-20) purchased from Teknova (Cat# P1192, Teknova, Hollister, Calif.) and supplemented with 0.25 M arginine (from J.T. BAKER®), 0.2 mg/ml BSA (Jackson Immuno Research Labs, West Grove, Pa.), and 0.005% sodium azide (VWR International, Radnor, Pa.) with the pH adjusted to 7 was used to query the antibodies. Antigen (ranging from 1.23 nM to 100 nM) was typically run sequentially with association times of 2-4 minutes and dissociation times of 3-120 minutes grouped with the PROTEON™ Manager Software (v3.1.0.6 (Bio-Rad, Hercules, Calif.)) and fitted using a 1:1 Langmuir binding model. Surfaces were regenerated between analyte queries using 0.85% Phosphoric Acid.

[2] = biological target: T2, human PACAP27; assay: SPR, Ab immobilised
Method: [The procedure below names another target; the source says it served here with some conditions changed.] as §1

[3] = biological target: T3, human PACAP38; assay: SPR, Ab immobilised
Method: as §1

[4] = biological target: T2, human PACAP27; assay: cell-based or functional assay
[5] = biological target: T3, human PACAP38; assay: cell-based or functional assay
[6] = biological target: T3, human PACAP38; assay: HTRF binding, biotin-PACAP38
Method: In parallel, 10 μl of an antibody dilution series (highest final concentration of 100 nM) were incubated with 10 μl of N-terminal or C-terminal biotinylated PACAP38 (35 nM final) alone, or in combination with either PACAP27 (350 nM final) or VIP (350 nM final), i.e., 10× PACAP27 or 10×VIP, respectively, in a HTRF plate. 20 μl of Eu³⁺ cryptate labeled anti-hu Fc donor and 20 μl of d2-labeled streptavidin acceptor were added to each well and incubated for 1 hour at room temperature. Fluorescence was measured at 620 and 665 nm with a delay of 300 μsec.
EC₅₀ values, i.e. the concentration of an antibody that yields a response halfway between the baseline and the maximum value within a specified time period, were computed for each antibody based upon their binding curves and are shown in Table 1 below. […] A humanized form of antibody Ab1 was produced and is identified by an appended “.H”, i.e., Ab1.H, and it also bound PACAP38 with high affinity.

[7] = biological target: T3, human PACAP38; assay: cell-based or functional assay
[8] = biological target: T3, human PACAP38; assay: cell-based or functional assay
[9] = biological target: T3, human PACAP38; assay: inhibition of 100 nM biotin-PACAP38 binding to PC-12 cells, TRF
Method: To identify antibodies that block PACAP38 binding to PAC1-R-expressing cells, adherent PC-12 cells (ATCC, Manassas, Va.) expressing PAC1-R were used in a Europium-based PAC1-R expressing cells binding assay.
Antibody solutions were incubated with N-terminal biotinylated PACAP38 at 10× the final concentration (100 nM or 30 nM) for 1 hr, then added to PC-12 cells that were plated 24 hrs. prior in black clear bottom 96 well plates (COSTAR™, Corning Incorporated, Corning, N.Y.) and further incubated for 1 hr at room temperature. After three washes, the cells were incubated with 20 μl Europium-labeled streptavidin (PerkinElmer, Waltham, Mass.) for 1 hr at room temperature. Cells were washed three times, then 20 μl DELFIA® Enhancement solution (PerkinElmer, Waltham, Mass.) was added to each well and incubated for 15 minutes with gentle shaking. Plates were read (Time Resolved Fluorescence (“TRF”)) on SPECTRAMAX® (Molecular Devices, Sunnyvale, Calif.) plate reader.
FIGS. 14A-14BB are representative of the inhibition curves obtained by this method (results are shown for Ab1, Ab2, Ab3, Ab4, Ab5, Ab6, Ab7, Ab8, Ab9, Ab10, Ab11, Ab12, Ab13, Ab14, Ab15, Ab16, Ab17, Ab18, Ab19, Ab1.H, Ab10.H, Ab22, Ab23, Ab3.H, Ab4.H, Ab5.H, Ab9.H, and Ab12.H, respectively) wherein the PAC1-R expressing cells were PC-12 cells.

| Binder | Kd [1] | koff [1] | kon [1] | Kd [2] | koff [2] | kon [2] | Kd [3] | koff [3] | kon [3] | IC50, 0.1 nM PACAP27-induced PAC1-R mediated cAMP increase [4] | IC50, 0.1 nM PACAP38-induced PAC1-R mediated cAMP increase [5] | EC50 [6] | IC50, 1 nM PACAP38-induced human VPAC2-R mediated cAMP increase [7] | IC50, 5 nM PACAP38-induced human VPAC1-R mediated cAMP increase [8] | IC50 [9] |
| --- | --- | --- | --- | --- | --- | --- | --- | --- | --- | --- | --- | --- | --- | --- | --- |
| B1 | 820 nM | 0.13 s⁻¹ | 160000 M⁻¹ s⁻¹ | 0.17 nM | 7.8e-05 s⁻¹ | 470000 M⁻¹ s⁻¹ | 0.05 nM | 2.7e-05 s⁻¹ | 530000 M⁻¹ s⁻¹ | 0.155 nM | 0.162 nM | 0.62 nM | 22.9 nM | 3.71 nM | 36.7 nM |
| B2 | 260 nM | 0.096 s⁻¹ | 360000 M⁻¹ s⁻¹ | 0.035 nM | 2.9e-05 s⁻¹ | 820000 M⁻¹ s⁻¹ | ≤ 0.011 nM | ≤ 1e-05 s⁻¹ | 910000 M⁻¹ s⁻¹ | 0.192 nM | 0.212 nM | 0.68 nM | 1.15 nM | 3.53 nM | 27.3 nM |
| B3 | 55 nM | 0.017 s⁻¹ | 310000 M⁻¹ s⁻¹ | ≤ 0.027 nM | ≤ 1e-05 s⁻¹ | 370000 M⁻¹ s⁻¹ | ≤ 0.02 nM | ≤ 1e-05 s⁻¹ | 500000 M⁻¹ s⁻¹ | 0.0776 nM | 0.0977 nM | 0.46 nM | 0.205 nM | 0.78 nM | 33.1 nM |
